For five molecules, EC50 results are on record in patent publication US20170166631A1 (published 2017).

Where two headings read alike, the source gives them in different places.

What all share (assay): ELISA
Experiment [1] has as its target T1, HD21 (huntingtin exon 1 protein with 21 polyQ repeats after cleavage of the GST tag; aggregation reaction) (human, UniProt P42858 1-88).
T1 chain: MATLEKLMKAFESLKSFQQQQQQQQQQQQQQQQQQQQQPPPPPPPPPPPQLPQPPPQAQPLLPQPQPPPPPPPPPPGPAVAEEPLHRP

In experiment [2] the target is T2, HD49 (huntingtin exon 1 protein with 49 polyQ repeats after cleavage of the GST tag; aggregation reaction) (human, UniProt P42858 1-88).
T2 chain: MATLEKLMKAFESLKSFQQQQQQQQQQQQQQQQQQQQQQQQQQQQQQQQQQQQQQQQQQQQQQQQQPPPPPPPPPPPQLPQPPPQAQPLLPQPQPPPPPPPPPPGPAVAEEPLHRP

For experiment [3], the target named is T3, GST-HttExon1Q21 (recombinant huntingtin exon 1 protein with 21 polyQ repeats fused to an N-terminal GST tag) (;human, UniProt P08515 1-218 = GST; P42858 1-88).
In experiment [4] the target is T1, HD21 (huntingtin exon 1 protein with 21 …).
Experiment [5] concerns the target T2, HD49 (huntingtin exon 1 protein with 49 …).
Experiment [6] addresses T3, GST-HttExon1Q21 (recombinant huntingtin …). The source holds these as a separate data set.
Target sequence in this assay (P08515 1-218, tags or fused parts left off): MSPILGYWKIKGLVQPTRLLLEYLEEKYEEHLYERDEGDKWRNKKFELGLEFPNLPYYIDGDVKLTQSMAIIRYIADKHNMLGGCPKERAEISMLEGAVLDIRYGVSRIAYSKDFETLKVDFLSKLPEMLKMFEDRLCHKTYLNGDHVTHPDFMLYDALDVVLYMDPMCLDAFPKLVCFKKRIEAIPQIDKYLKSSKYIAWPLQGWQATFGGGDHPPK
Experiment [7] addresses T4, BSA-coupled synthetic peptide of the polyP repeat sequence of huntingtin exon 1 (coupled to BSA).
T4 peptide: PPPPPPPPPPP

The target in experiment [8] is T1, HD21 (huntingtin exon 1 protein with 21 …).
For experiment [9], the target named is T2, HD49 (huntingtin exon 1 protein with 49 …).
The target in experiment [10] is T3, GST-HttExon1Q21 (recombinant huntingtin …). The source holds these as a separate data set.
In experiment [11] the target is T5, BSA-coupled synthetic peptide of the 14 C-terminal amino acids of huntingtin exon 1 (coupled to BSA).
T5 peptide: PPGPAVAEEPLHRP

Experiment [12] concerns the target T1, HD21 (huntingtin exon 1 protein with 21 …).
Experiment [13] concerns the target T2, HD49 (huntingtin exon 1 protein with 49 …).
Experiment [14] deals with T3, GST-HttExon1Q21 (recombinant huntingtin …). The source holds these as a separate data set.
Experiment [15] addresses T6, BSA-coupled synthetic peptide of the P-rich domain sequence of huntingtin exon 1 (coupled to BSA).
T6 peptide: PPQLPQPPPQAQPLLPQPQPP

The target of experiment [16] is T1, HD21 (huntingtin exon 1 protein with 21 …).
Experiment [17] concerns the target T2, HD49 (huntingtin exon 1 protein with 49 …).
The target in experiment [18] is T3, GST-HttExon1Q21 (recombinant huntingtin …). The source holds these as a separate data set.
Experiment [19] addresses T1, HD21 (huntingtin exon 1 protein with 21 …).
For experiment [20], the target named is T3, GST-HttExon1Q21 (recombinant huntingtin …). This is another data set of the same source.

B1: NI-302.15E8 (antibody, V domains shown)
VH: EVQLVESGGGLIQPGGSLRLSCAVSGFTVSSYSMNWVRQAPGKGLEWVSYTSSSRSNTKKYADSVKGRFTISRDNARNSLYLQMNSLRDEDTAVYYCARAGDFGELLTGEGYYGMDVWGQGTTVTVSS
VL: SYELTQPPSVSVSPGQTATITCSGDELGDKYVGWYQQKPGQSPLLVIYQDAKRPSGIPERFSGSNSGNTATLTISGTQAMDEADYYCQAWDSGTMVFGGGTRLTVL
Usually EC50 stands for the midpoint of the concentration-response curve. Consider B1, for which the EC50 in experiment [1] is above 100 nM; in experiment [2] it was above 100 nM; in experiment [3], 9.3 nM; in experiment [4], above 100 nM; in experiment [5], above 100 nM; in experiment [6], 9.3 nM.

B2: NI-302.33C11 (antibody, V domains shown)
VH: EVQLVESGGGVVQPGNSLRLSCAASGFRFSDFGMHWVRQAPGKGLEWLALIWYDGGYKYYADSVKGRFTISRDNSKNTMFLQMNSLRAEDTAVYYCATHLEYCSRTTCYLGHWGQGTLVTVSS
VL: DIQLTQSPSFLSASVGDTVTFTCRASQGISDYLAWFQQKPGIAPKLLIYAASTLQTGVPSRFSGSGSGTEFTLTIRSLQSEDFGTYYCQQLKTYPYTFGQGTKVEIK
B2: the EC50 in experiment [4] is 0.13 nM; in experiment [7], 0.1 nM; in experiment [5], 0.15 nM; in experiment [6] it was 0.11 nM; in experiment [8], 0.13 nM; in experiment [9] it was 0.15 nM. Moreover, the EC50 in [10] worked out at 0.11 nM.

B3: NI-302.72F10 (antibody, V domains shown)
VH: EVQLVETGGGFVQPGGSLRLSCAASGFNFGSYAMSWVRQAPGKGLEWVSDISGIGSNTYYADSVKGRFTISRDNSDNTLYLDMSSLRAEDTARYYCAKDRKRSGWYEQWGQGTLVTVSS
VL: EIVMTQSPATLTLSPGERATLSCRASQSISAYLGWYQQKPGQAPRLLIYDASIRATGIPDRFSGSGSGTDFTLTISSLEPEDSAVYYCHQRSKWPLTFGGGTKVEIK
Consider B3, for which the EC50 in experiment [4] worked out at 4 nM; in [5], 26 nM; in experiment [11], 0.1 nM; in experiment [6], 10 nM; in experiment [12] it was 4 nM; in experiment [13], 26 nM. Moreover, in [14], the EC50 turned out to be 10 nM.

B4: NI-302.63F3 (antibody, V domains shown)
VH: QVQLVQSGSAFKKPGTSVKVSCKASGYTFETRSMNWVRQAPGQGLEYMGWINTNTGNRTYVQAFRGRFVFSLDTSVSTAYLQISNLKTEDTAVYYCARGAGGGYWFDSWGQGTLVTVSS
VL: DIQMTQSPDSLAVSLGERATINCKSNQSLFYSSNNNNYLAWYQHKSGQPPKLLVYWGSTRESGVPDRFSGSGSGTDFTLTISSLQAEDVAIYYCHQYYHNPYTFGQGTKLEIK
As for B4, the EC50 in [4] stood at 0.3 nM; in experiment [15], 0.3 nM; in [5], 0.4 nM; in [6] it was 0.2 nM; in experiment [16], 0.3 nM; in experiment [17] it was 0.4 nM. The EC50 in [18] came out at 0.2 nM.

B5: NI-302.35C1 (antibody, V domains shown)
VH: EVQLVESGGNLVQPGGSLRLSCTASGFTFSITALSWVRQAPEKGPQWVSAITGNAYGTYYADSVKGRFTISRDNAKNTLYLQMNGLRAEDTAIYYCVKGIASDSSGYSAFWGPGTLVTVSS
VL: EIVLTQSPATLSLSPGERATLSCRASQSVDNQFAWYQQKPGQAPRLLIYDASRRAPGIPDRFSGSGSGTDFTLTISSLEPEDFAIYYCQHRYTWLYTFGQGTRLEIK
Consider B5, for which the EC50 was determined as 7.9 nM in experiment [4], 4.6 nM in [6], 7.9 nM in [19] and 4.6 nM in [20].
